Key:
Format in all cases: biochemical
[1] = target: T1, Arabidopsis AHAS large subunit (wild type) (Arabidopsis thaliana, UniProt P17597); assay: AHAS assay of purified wild type large subunit with added substances
T1 construct: GST (glutathione transferase) (N, cleaved yes); made in house; host or cells: E. coli DH5alpha
T1 sequence (P17597 56-670): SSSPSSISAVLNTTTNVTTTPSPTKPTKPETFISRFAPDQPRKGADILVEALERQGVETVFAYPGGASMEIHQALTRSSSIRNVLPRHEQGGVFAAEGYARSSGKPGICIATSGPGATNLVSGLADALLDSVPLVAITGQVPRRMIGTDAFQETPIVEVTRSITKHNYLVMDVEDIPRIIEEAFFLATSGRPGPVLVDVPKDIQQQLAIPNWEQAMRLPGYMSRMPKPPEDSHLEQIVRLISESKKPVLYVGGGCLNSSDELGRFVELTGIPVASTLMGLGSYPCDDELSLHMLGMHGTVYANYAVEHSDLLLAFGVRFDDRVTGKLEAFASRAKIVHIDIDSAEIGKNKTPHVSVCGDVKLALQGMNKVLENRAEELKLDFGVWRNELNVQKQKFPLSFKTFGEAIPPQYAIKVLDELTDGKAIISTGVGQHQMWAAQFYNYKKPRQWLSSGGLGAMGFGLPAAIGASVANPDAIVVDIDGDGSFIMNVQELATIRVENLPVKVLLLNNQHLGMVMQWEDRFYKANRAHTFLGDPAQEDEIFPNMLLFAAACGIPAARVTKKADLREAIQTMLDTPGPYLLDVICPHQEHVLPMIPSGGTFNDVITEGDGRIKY
Description: (§1) AHAS assays. AHAS assays were performed with slight modification as described by Singh et al. {Singh et al., 1988}. AHAS activity was assayed in 1× AHAS assay buffer (50 mM HEPES pH 7.0, 100 mM pyruvate, 10 mM MgCl2, 1 mM TPP, and 50 μM FAD). A final concentration of 1× assay buffer was obtained either by dilution of enzyme extracted in 2× assay buffer or addition of enzyme to make a final concentration 1×AHAS assay buffer. All assays containing imazethapyr and associated controls contained a final concentration of 5% DMSO due to addition of imazethapyr to assay mixtures as a 50% DMSO solution. Assays were performed in a final volume of 250 μL at 37° C. in microtiter plates.
Effects of Dithiothreitol. The effect of dithiothreitol (DTT) in Phosphate Buffered Saline (MTPBS) on AHAS large subunit enzyme activity was measured. Experiments were carried out with or without 3 mM DTT in the purified protein solution of large subunit. The assays were conducted as above. […] Moreover, in the absence of DTT, large subunit activity degraded over the 4 day period (FIG. 6).
Effects of Bovine Serum Albumin. To determine whether the enhancement of the large subunit was specific to the small subunit, another nonspecific control which tested the effects of bovine serum albumin was run. To a fixed amount of large subunit an increasing amount of a 0.25 mg/mil BSA solution was added.
(§2) The following experiments used the small subunit and large subunit proteins purified as described in Example 2 above. The plasmid F1 containing the AHAS small subunit gene from Arabidopsis was expressed in E. coli and partially purified. The protein concentration of the sample was determined and aliquots of increasing concentration were added to a constant amount of purified Arabidopsis large subunit.

[2] = target: T2, herbicide-resistant mutant (Met124 His) large subunit Arabidopsis AHAS protein (Arabidopsis thaliana, UniProt P17597, M124H); assay: AHAS assay of herbicide-resistant mutant large subunit with added small subunit; settings: mutant with methionine at position 124 substituted by histidine (FIG. 9)
T2 construct: GST (glutathione transferase) (N, cleaved yes); made in house; host or cells: E. coli DH5alpha
T2 sequence (P17597 56-670 M124H): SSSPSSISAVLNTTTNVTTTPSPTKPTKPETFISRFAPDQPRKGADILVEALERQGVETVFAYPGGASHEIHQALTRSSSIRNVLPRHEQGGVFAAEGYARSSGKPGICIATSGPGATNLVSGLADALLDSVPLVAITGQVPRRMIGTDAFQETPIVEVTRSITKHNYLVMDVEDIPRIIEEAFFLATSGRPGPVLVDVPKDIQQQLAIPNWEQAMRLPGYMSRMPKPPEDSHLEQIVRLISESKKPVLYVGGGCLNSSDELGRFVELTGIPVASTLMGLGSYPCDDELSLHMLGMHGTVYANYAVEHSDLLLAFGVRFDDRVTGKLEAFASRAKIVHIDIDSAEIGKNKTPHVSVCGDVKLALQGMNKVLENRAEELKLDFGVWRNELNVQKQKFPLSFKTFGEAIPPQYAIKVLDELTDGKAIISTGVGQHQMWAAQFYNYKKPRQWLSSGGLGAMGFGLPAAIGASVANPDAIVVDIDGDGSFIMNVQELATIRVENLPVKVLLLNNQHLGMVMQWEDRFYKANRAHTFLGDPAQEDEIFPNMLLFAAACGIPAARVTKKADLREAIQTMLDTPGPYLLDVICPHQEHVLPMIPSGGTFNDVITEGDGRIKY
T2 sequence (Q93YZ7 233-491 P488L, further chain): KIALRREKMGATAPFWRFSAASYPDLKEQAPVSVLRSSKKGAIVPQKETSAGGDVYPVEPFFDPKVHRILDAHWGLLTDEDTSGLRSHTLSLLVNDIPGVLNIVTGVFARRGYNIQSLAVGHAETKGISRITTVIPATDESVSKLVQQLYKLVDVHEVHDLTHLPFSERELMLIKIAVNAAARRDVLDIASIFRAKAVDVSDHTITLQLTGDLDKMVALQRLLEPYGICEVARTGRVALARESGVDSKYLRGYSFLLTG
Description: as §1, §2
In another experiment, a herbicide-resistant mutant of the large subunit enzyme (substitution mutation at position 124, methionine substituted by histidine) was used.

[3] = target: T3, Arabidopsis AHAS large subunit (Arabidopsis thaliana, UniProt P17597); assay: Stability of AHAS large subunit activity on storage in MTPBS with or without DTT
T3 construct: GST (glutathione transferase) (N, cleaved yes); made in house; host or cells: E. coli DH5alpha
T3 sequence (P17597 56-670): T1 sequence (P17597 56-670)
Description: The cell pellet from 1 liter of cell culture was resuspended in 10 ml of MTPBS (150 mM NaCl, 16 mM Na2HPO4, 4 mM NaH2PO4), pH 7.3 (Smith and Johnson Gene 67: 31-40, […]) and 100 μg/ml of lysozyme was added. The suspension was adjusted to 5 mM dithiothreitol. Triton X-100 was added to a final concentration of 1% by addition of a 20% Triton X-100 in MTPBS solution. The cells were shaken gently at 30° C. for 15 minutes and were then cooled to 4° C. on ice and sonicated for 8-10 seconds using a microtip probe, duty cycle 70%, output control at maximum for the microtip pulser. The sonicate was centrifuged two times in a J20 rotor, 17,000 rpm, 4° C., 10 minutes, to remove insoluble material. Lysate was added to 150 mg (dry weight) of glutathione agarose (equilibrated and hydrated in MTPBS) and inverted for 30 minutes at 4° C. Agarose was settled by centrifugation at 500 rpm for 5 minutes and was washed with ice cold MTPBS by repeated centrifugation cycles until the A280 of the wash matched that of MTPBS. Agarose was transferred to an appropriate column for elution. Fusion proteins were eluted with 50 mM Tris-HCl, 5 mM reduced glutathione into 1 ml fractions. […]
Effects of Dithiothreitol. The effect of dithiothreitol (DTT) in Phosphate Buffered Saline (MTPBS) on AHAS large subunit enzyme activity was measured. […]

For `O[C@H](CS)[C@H](O)CS` (racemic) [DTT, dithiothreitol], the “effect on catalytic activity of the AHAS large subunit” value ([1]; 3 mM DTT in MTPBS versus no DTT (FIG. 5 vs FIG. 6)) was “enhanced dramatically” and the “stabilization and activation of the enzyme compared with other sulfhydryl reductants” value ([1]; versus reduced glutathione and β-mercaptoethanol) was “better than reduced glutathione and β-mercaptoethanol”.

“Arabidopsis small subunit protein: Arabidopsis AHAS small subunit expressed from plasmid F1 in E. coli and partially purified” was tested, and the “effect on enzymatic activity of herbicide-resistant form of the large subunit” value [2] was “also enhanced” and the “effect on enzymatic activity of the catalytic large subunit” value ([1]; increasing small subunit (from plasmid F1) added to constant wild type large subunit (FIG. 8)) was “enhances the level of enzymatic activity”.

B1: Arabidopsis large subunit: purified wild type Arabidopsis AHAS large subunit protein expressed in E. coli (pAC774) (protein)
chain: SSISAVLNTTTNVTTTPSPTKPTKPETFISRFAPDQPRKGADILVEALERQGVETVFAYPGGASMEIHQALTRSSSIRNVLPRHEQGGVFAAEGYARSSGKPGICIATSGPGATNLVSGLADALLDSVPLVAITGQVPRRMIGTDAFQETPIVEVTRSITKHNYLVMDVEDIPRIIEEAFFLATSGRPGPVLVDVPKDIQQQLAIPNWEQAMRLPGYMSRMPKPPEDSHLEQIVRLISESKKPVLYVGGGCLNSSDELGRFVELTGIPVASTLMGLGSYPCDDELSLHMLGMHGTVYANYAVEHSDLLLAFGVRFDDRVTGKLEAFASRAKIVHIDIDSAEIGKNKTPHVSVCGDVKLALQGMNKVLENRAEELKLDFGVWRNELNVQKQKFPLSFKTFGEAIPPQYAIKVLDELTDGKAIISTGVGQHQMWAAQFYNYKKPRQWLSSGGLGAMGFGLPAAIGASVANPDAIVVDIDGDGSFIMNVQELATIRVENLPVKVLLLNNQHLGMVMQWEDRFYKANRAHTFLGDPAQEDEIFPNMLLFAAACGIPAARVTKKADLREAIQTMLDTPGPYLLDVICPHQEHVLPMIPSGGTFNDVITEGDGRIKY
For B1, the “stability of large subunit activity” value ([3]; absence of DTT, 4 day period (FIG. 6)) was “degraded” and the “stability of large subunit” value ([3]; in the presence of 3 mM DTT, 1 month, stored at 4° C.) was “very stable”.
